Positions count from the first letter of the chain named. Names may count otherwise.
T1: Chryseobacterium sp-62563 deamidase polypeptide (second polypeptide, deamidase domain), wildtype (Chryseobacterium sp-62563)
T1 sequence: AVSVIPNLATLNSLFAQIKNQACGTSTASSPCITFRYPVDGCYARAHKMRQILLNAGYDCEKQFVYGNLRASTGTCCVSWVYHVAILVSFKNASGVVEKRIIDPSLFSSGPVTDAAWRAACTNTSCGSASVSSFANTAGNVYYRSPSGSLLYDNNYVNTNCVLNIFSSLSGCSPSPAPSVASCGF

B1: Chryseobacterium sp-62563 propeptide E67C (protein)
chain: NQDPNLVAKESNETAMKDFGKTVPVGIEKEDGKFKISFMVTAQPYEIKDSKENAAYISMIKTAVENCTPIHVFLKANTNEIAKVDKATDDDIRYFKSVFTKEVKEENRK
B2: Chryseobacterium sp-62563 propeptide N1C (protein)
chain: B1 chain with N1C, C67E
B3: Chryseobacterium sp-62563 propeptide S58P (protein)
chain: B1 chain with S58P, C67E
B4: Chryseobacterium sp-62563 propeptide M39H (protein)
chain: B1 chain with M39H, C67E
B5: Chryseobacterium sp-62563 propeptide E13C (protein)
chain: B1 chain with E13C, C67E
B6: Chryseobacterium sp-62563 propeptide G20D (protein)
chain: B1 chain with G20D, C67E
B7: Chryseobacterium sp-62563 propeptide F38G (protein)
chain: B1 chain with F38G, C67E
B8: Chryseobacterium sp-62563 propeptide M39F (protein)
chain: B1 chain with M39F, C67E
B9: Chryseobacterium sp-62563 propeptide T100E (protein)
chain: B1 chain with C67E, T100E
B10: Chryseobacterium sp-62563 propeptide M16G (protein)
chain: B1 chain with M16G, C67E
B11: Chryseobacterium sp-62563 propeptide E30W (protein)
chain: B1 chain with E30W, C67E
B12: Chryseobacterium sp-62563 propeptide M39N (protein)
chain: B1 chain with M39N, C67E
B13: Chryseobacterium sp-62563 propeptide K101I (protein)
chain: B1 chain with C67E, K101I
B14: Chryseobacterium sp-62563 propeptide F19P (protein)
chain: B1 chain with F19P, C67E
B15: Chryseobacterium sp-62563 propeptide F38D (protein)
chain: B1 chain with F38D, C67E
B16: Chryseobacterium sp-62563 propeptide M39S (protein)
chain: B1 chain with M39S, C67E
B17: Chryseobacterium sp-62563 propeptide D18G (protein)
chain: B1 chain with D18G, C67E
B18: Chryseobacterium sp-62563 propeptide E67A (protein)
chain: B1 chain with C67A
B19: Chryseobacterium sp-62563 propeptide R108N (protein)
chain: B1 chain with C67E, R108N
B20: Chryseobacterium sp-62563 propeptide M39Y (protein)
chain: B1 chain with M39Y, C67E
B21: Chryseobacterium sp-62563 propeptide K101S (protein)
chain: B1 chain with C67E, K101S
B22: Chryseobacterium sp-62563 propeptide D18R (protein)
chain: B1 chain with D18R, C67E
B23: Chryseobacterium sp-62563 propeptide K101M (protein)
chain: B1 chain with C67E, K101M
B24: Chryseobacterium sp-62563 propeptide T14P (protein)
chain: B1 chain with T14P, C67E
B25: Chryseobacterium sp-62563 propeptide K101D (protein)
chain: B1 chain with C67E, K101D
B26: Chryseobacterium sp-62563 propeptide K21G (protein)
chain: B1 chain with K21G, C67E
B27: Chryseobacterium sp-62563 propeptide V25C (protein)
chain: B1 chain with V25C, C67E
B28: Chryseobacterium sp-62563 propeptide D18P (protein)
chain: B1 chain with D18P, C67E
B29: Chryseobacterium sp-62563 propeptide E10P (protein)
chain: B1 chain with E10P, C67E
B30: Chryseobacterium sp-62563 propeptide K101A (protein)
chain: B1 chain with C67E, K101A
B31: Chryseobacterium sp-62563 propeptide Y56P (protein)
chain: B1 chain with Y56P, C67E
B32: Chryseobacterium sp-62563 propeptide K109C (protein)
chain: B1 chain with C67E, K109C
B33: Chryseobacterium sp-62563 propeptide K101N (protein)
chain: B1 chain with C67E, K101N
B34: Chryseobacterium sp-62563 propeptide K101L (protein)
chain: B1 chain with C67E, K101L
B35: Chryseobacterium sp-62563 propeptide K101P (protein)
chain: B1 chain with C67E, K101P
B36: Chryseobacterium sp-62563 propeptide E65P (protein)
chain: B1 chain with E65P, C67E
B37: Chryseobacterium sp-62563 propeptide T100Q (protein)
chain: B1 chain with C67E, T100Q
B38: Chryseobacterium sp-62563 propeptide Y45L (protein)
chain: B1 chain with Y45L, C67E
B39: Chryseobacterium sp-62563 propeptide K109G (protein)
chain: B1 chain with C67E, K109G
B40: Chryseobacterium sp-62563 propeptide D18K (protein)
chain: B1 chain with D18K, C67E
B41: Chryseobacterium sp-62563 propeptide M39G (protein)
chain: B1 chain with M39G, C67E
B42: Chryseobacterium sp-62563 propeptide K101C (protein)
chain: B1 chain with C67E, K101C
B43: Chryseobacterium sp-62563 propeptide K101G (protein)
chain: B1 chain with C67E, K101G
B44: Chryseobacterium sp-62563 propeptide M39E (protein)
chain: B1 chain with M39E, C67E
B45: Chryseobacterium sp-62563 propeptide K101Y (protein)
chain: B1 chain with C67E, K101Y
B46: Chryseobacterium sp-62563 propeptide F19L (protein)
chain: B1 chain with F19L, C67E
B47: Chryseobacterium sp-62563 propeptide K101W (protein)
chain: B1 chain with C67E, K101W
B48: Chryseobacterium sp-62563 propeptide D18M (protein)
chain: B1 chain with D18M, C67E
B49: Chryseobacterium sp-62563 propeptide K101E (protein)
chain: B1 chain with C67E, K101E
B50: Chryseobacterium sp-62563 propeptide M39W (protein)
chain: B1 chain with M39W, C67E
B51: Chryseobacterium sp-62563 propeptide V23Y (protein)
chain: B1 chain with V23Y, C67E
B52: Chryseobacterium sp-62563 propeptide M39Q (protein)
chain: B1 chain with M39Q, C67E

target: T1, Chryseobacterium sp-62563 deamidase polypeptide (second polypeptide, deamidase domain), wildtype (Chryseobacterium sp-62563); assay: cell-based or functional assay

Relative activity of maturated deamidase (% initial rate) | Leakage activity [%] | Binder
46 |  | B1
27 | 0 | B2
42 |  | B3
> 100 |  | B4
 | 0 | B5
 | 0 | B6
> 100 |  | B7
45 |  | B8
75 |  | B9
27 | 0 | B10
27 |  | B11
39 |  | B12
38 |  | B13
71 | 3 | B14
> 100 |  | B15
> 100 |  | B16
62 | 0 | B17
46 |  | B18
 | 0 | B19
> 100 |  | B20
29 |  | B21
51 | 0 | B22
29 |  | B23
 | 0 | B24
46 |  | B25
53 | 0 | B26

Relative activity of maturated deamidase (% initial rate) | Leakage activity [%] | Binder
96 |  | B27
66 | 0 | B28
 | 0 | B29
36 |  | B30
32 |  | B31
 | 0 | B32
29 |  | B33
41 |  | B34
36 |  | B35
30 |  | B36
79 |  | B37
65 |  | B38
29 | 0 | B39
37 | 5 | B40
> 100 |  | B41
38 |  | B42
34 |  | B43
95 |  | B44
46 |  | B45
33 |  | B46
54 |  | B47
34 | 0 | B48
45 |  | B49
44 |  | B50
56 | 0 | B51
> 100 |  | B52

Source: patent US20250215412A1 (NOVOZYMES A S, published 2025)
